The term Km denotes the substrate concentration at which the rate is half of its maximum. Usually Vmax stands for the top rate of the reaction or transport when substrate is in excess.

Data set [1] concerns the target T1, UDP-glucuronosyltransferase 2A3 (UGT2A3) (Homo sapiens, UniProt Q6UWM9).
T1 sequence (Q6UWM9 24-527): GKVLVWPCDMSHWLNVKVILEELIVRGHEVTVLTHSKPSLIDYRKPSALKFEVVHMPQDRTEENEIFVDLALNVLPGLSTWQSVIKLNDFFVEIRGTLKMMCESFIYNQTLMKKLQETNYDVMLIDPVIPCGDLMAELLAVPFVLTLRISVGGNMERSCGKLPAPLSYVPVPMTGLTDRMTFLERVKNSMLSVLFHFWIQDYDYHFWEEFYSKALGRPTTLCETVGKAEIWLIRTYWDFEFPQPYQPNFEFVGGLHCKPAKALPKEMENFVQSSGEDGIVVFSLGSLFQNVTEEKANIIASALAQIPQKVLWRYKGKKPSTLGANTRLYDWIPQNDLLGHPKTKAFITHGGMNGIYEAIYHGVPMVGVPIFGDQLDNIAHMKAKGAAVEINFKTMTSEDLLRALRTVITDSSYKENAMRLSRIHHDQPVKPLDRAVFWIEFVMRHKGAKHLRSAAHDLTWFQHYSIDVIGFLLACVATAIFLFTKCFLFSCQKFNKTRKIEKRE
Description: glucuronidation rate at […], radiochemical HPLC. Format: cell-based.

Substrate in data set [2]: O=[N+]([O-])c1ccc(O)cc1
Description: glucuronidation kinetics. It counts as cell-based, Homo sapiens. The conditions noted are these: UDP-glucuronic acid; MgCl2 ([…]).

Substrate in data set [3]: O=C(O)[C@H]1O[C@H](OP(=O)(O)OP(=O)(O)OC[C@H]2O[C@@H](n3ccc(=O)[nH]c3=O)[C@H](O)[C@@H]2O)[C@H](O)[C@@H](O)[C@@H]1O
In words: cells, lysate or membranes. Conditions: MgCl2 ([…]) co-substrate.

Substrate in data set [4]: Oc1ccc(-c2ccccc2)cc1
In words: glucuronidation kinetics. Format: cell-based, Homo sapiens. Conditions: UDP-glucuronic acid; MgCl2 ([…]).

Substrate in data set [5]: Cc1cc(=O)oc2cc(O)ccc12
In words: glucuronidation kinetics. It counts as cell-based, Homo sapiens. The conditions noted are these: UDP-glucuronic acid; MgCl2 ([…]).

Take `C[C@H](CCC(=O)O)[C@H]1CC[C@H]2[C@@H]3C[C@H](O)[C@@H]4C[C@H](O)CC[C@]4(C)[C@H]3CC[C@]12C` [HDCA, hyodeoxycholic acid]: the “glucuronidation rate at 200 μM, radiochemical HPLC (4.9 pmol/min/mg)” value in data set [1] was “UGT2A3 exhibited glucuronidating activity only towards HDCA”.

B1: UDP-glucuronosyltransferase 2A1 (UGT2A1) (Homo sapiens) (protein)
chain: GNVLIWPMEGSHWLNVKIIIDELIKKEHNVTVLVASGALFITPTSNPSLTFEIYKVPFGKERIEGVIKDFVLTWLENRPSPSTIWRFYQEMAKVIKDFHMVSQEICDGVLKNQQLMAKLKKSKFEVLVSDPVFPCGDIVALKLGIPFMYSLRFSPASTVEKHCGKVPYPPSYVPAVLSELTDQMSFTDRIRNFISYHLQDYMFETLWKSWDSYYSKALGGLLLCCPGWSAVADLGSLQPLLPGFKRFSRLSLHCSWDYRLPAGRPTTLCETMGKAEIWLIRTYWDFEFPRPYLPNFEFVGGLHCKPAKPLPKVLWRYKGKKPATLGNNTQLFDWIPQNDLLGHPKTKAFITHGGTNGIYEAIYHGVPMVGVPMFADQPDNIAHMKAKGAAVEVNLNTMTSVDLLSALRTVINEPSYKENAMRLSRIHHDQPVKPLDRAVFWIEFVMRHKGAKHLRVAAHDLTWFQYHSLDVIGFLLVCVTTAIFLVIQCCLFSCQKFGKIGKKKKRE
For B1, the Km came to 303 µM in the data set “glucuronidation kinetics [2]” and 39.5 µM in data set [3]. Besides, the figures for the Vmax (in “glucuronidation kinetics [2]”; in data set [3]) were 141 ± 5 pmol/min/mg and 292 ± 12 pmol/min/mg, respectively.

B2: UDP-glucuronosyltransferase 2A2 (UGT2A2) (Homo sapiens) (protein)
chain: MVSIRDFTMPKKFVQMLVFNLTLTEVVLSGNVLIWPTDGSHWLNIKIILEELIQRNHNVTVLASSATLFINSNPDSPVNFEVIPVSYKKSNIDSLIEHMIMLWIDHRPTPLTIWAFYKELGKLLDTFFQINIQLCDGVLKNPKLMARLQKGGFDVLVADPVTICGDLVALKLGIPFMYTLRFSPASTVERHCGKIPAPVSYVPAALSELTDQMTFGERIKNTISYSLQDYIFQSYWGEWNSYYSKILGRPTTLCETMGKAEIWLIRTYWDFEFPRPYLPNFEFVGGLHCKPAKPLPKEMEEFIQSSGKNGVVVFSLGSMVKNLTEEKANLIASALAQIPQKVLWRYKGKKPATLGNNTQLFDWIPQNDLLGHPKTKAFITHGGTNGIYEAIYHGVPMVGVPMFADQPDNIAHMKAKGAAVEVNLNTMTSVDLLSALRTVINEPSYKENAMRLSRIHHDQPVKPLDRAVFWIEFVMRHKGAKHLRVAAHDLTWFQYHSLDVIGFLLVCVTTAIFLVIQCCLFSCQKFGKIGKKKKRE
For the molecule B2, the Km stood at 245 µM in “glucuronidation kinetics [4]”, 2998 µM in “glucuronidation kinetics [5]”, 4469 µM in the data set “glucuronidation kinetics [2]” and 55.1 µM in data set [3]. Further, the maximal velocity (Vmax) came out at 124 ± 2 pmol/min/mg in the data set “glucuronidation kinetics [4]”, 39 ± 0.9 pmol/min/mg in “glucuronidation kinetics [5]”, 69 ± 3 pmol/min/mg in “glucuronidation kinetics [2]” and 91.4 ± 3 pmol/min/mg in data set [3].

Values taken from article PMC2928392 (Pharmacogenetics and Genomics, 2009).
